The chains are these.
T1: human CD30 (human, UniProt P28908 19-595)
T1 construct: also called huCD30; TNFRSF8
T1 sequence: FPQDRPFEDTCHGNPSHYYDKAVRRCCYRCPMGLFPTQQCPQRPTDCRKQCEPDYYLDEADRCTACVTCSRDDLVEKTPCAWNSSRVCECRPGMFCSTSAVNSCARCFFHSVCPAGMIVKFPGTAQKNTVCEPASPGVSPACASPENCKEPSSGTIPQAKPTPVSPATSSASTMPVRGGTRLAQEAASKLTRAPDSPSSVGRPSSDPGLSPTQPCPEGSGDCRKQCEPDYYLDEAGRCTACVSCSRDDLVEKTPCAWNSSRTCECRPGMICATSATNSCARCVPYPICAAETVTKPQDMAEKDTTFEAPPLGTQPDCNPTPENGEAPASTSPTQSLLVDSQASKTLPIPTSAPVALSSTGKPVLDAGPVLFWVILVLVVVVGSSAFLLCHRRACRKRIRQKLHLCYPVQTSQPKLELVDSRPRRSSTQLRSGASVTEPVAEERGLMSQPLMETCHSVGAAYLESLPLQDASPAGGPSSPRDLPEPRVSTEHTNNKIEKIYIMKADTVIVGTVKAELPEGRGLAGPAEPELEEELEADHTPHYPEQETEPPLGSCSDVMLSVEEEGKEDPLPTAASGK

B1: bsG1-huCD3-FEALxCD30-hAC10-FEAR (bispecific antibody, human IgG1, kappa, lambda)
heavy 1: not shown
light 1: not shown
heavy 2: QVQLVQSGAEVKKPGASVKVSCKASGYTFTDYYITWVRQAPGQGLEWMGWIYPGSGNTKYNEKFKGRVTMTRDTSISTAYMELSRLRSDDTAVYYCANYGNYWFAYWGQGTLVTVSSASTKGPSVFPLAPSSKSTSGGTAALGCLVKDYFPEPVTVSWNSGALTSGVHTFPAVLQSSGLYSLSSVVTVPSSSLGTQTYICNVNHKPSNTKVDKRVEPKSCDKTHTCPPCPAPEFEGGPSVFLFPPKPKDTLMISRTPEVTCVVVAVSHEDPEVKFNWYVDGVEVHNAKTKPREEQYNSTYRVVSVLTVLHQDWLNGKEYKCKVSNKALPAPIEKTISKAKGQPREPQVYTLPPSREEMTKNQVSLTCLVKGFYPSDIAVEWESNGQPENNYKTTPPVLDSDGSFFLYSRLTVDKSRWQQGNVFSCSVMHEALHNHYTQKSLSLSPG
light 2: not shown
notes: Bispecific IgG1 made by controlled Fab-arm exchange
B2: IgG1-CD30-T215-FEAR (antibody, V domains shown)
VH: QVTLKESGPGILQPSQTLSLTCSFSGFSLSVSGMGVSWIRQPSGKGLEWLAHIHWDDDRRSNPSLRSRLTISKDTSNNQVFLKITSVDTADTATYYCARRPDLYGNYFFFDFWGQGTTLTVSS
VL: DIVMTQSQKFMSTSVGDRVSVTCKASQNVFTNVAWYQQKLGQSPKPLIYSASYRYSGVPDRFTGSGSGTDFTLTISDVQSEDLAEYFCQQYNSYPVTFGAGTKLELKR
notes: Monospecific, bivalent parental antibody
B3: bsG1-huCD3-FEALxCD30-HeFi-I-FEAR (bispecific antibody, human IgG1, kappa, lambda)
heavy 1: not shown
light 1: not shown
heavy 2: EVKLVESGGGLVQPGGSLRLSCATSGFTFSDYYMNWVRQPPGKALEWLGFIRNKANGYTTEFSASVMGRFTISRDDSQSILYLQMNTLRAEDSATYYCARDPPYGNPHYYAMDYWGQGTSVTVSSASTKGPSVFPLAPSSKSTSGGTAALGCLVKDYFPEPVTVSWNSGALTSGVHTFPAVLQSSGLYSLSSVVTVPSSSLGTQTYICNVNHKPSNTKVDKRVEPKSCDKTHTCPPCPAPEFEGGPSVFLFPPKPKDTLMISRTPEVTCVVVAVSHEDPEVKFNWYVDGVEVHNAKTKPREEQYNSTYRVVSVLTVLHQDWLNGKEYKCKVSNKALPAPIEKTISKAKGQPREPQVYTLPPSREEMTKNQVSLTCLVKGFYPSDIAVEWESNGQPENNYKTTPPVLDSDGSFFLYSRLTVDKSRWQQGNVFSCSVMHEALHNHYTQKSLSLSPG
light 2: not shown
notes: Bispecific IgG1 made by controlled Fab-arm exchange; also called BsIgG1-huCD3-FEALxCD30-HeFi-I-FEAR
B4: IgG1-CD30-HRS-3-FEAR (antibody, V domains shown)
VH: QVQLQQSGAELARPGASVKMSCKASGYTFTTYTIHWVRQRPGHDLEWIGYINPSSGYSDYNQNFKGKTTLTADKSSNTAYMQLNSLTSEDSAVYYCARRADYGNYEYTWFAYWGQGTTVTVSS
VL: DIVMTQSPKFMSTSVGDRVTVTCKASQNVGTNVAWFQQKPGQSPKVLIYSASYRYSGVPDRFTGSGSGTDFTLTISNVQSEDLAEYFCQQYHTYPLTFGGGTKLEINR
notes: as for B2
B5: bsG1-huCD3-FEALxCD30-T405-FEAR (bispecific antibody, human IgG1, kappa, lambda)
heavy 1: not shown
light 1: not shown
heavy 2: QVQLQQIGAELVRPGASVKLSCKASGYTFNNYWINWVKQRPGQGLEWIGNIYPSDSRSNYNQKFKDKATLTVDKPSSTAYMQLSSPTSEDSAVYYCTLGSYWGQGTLVTVSAASTKGPSVFPLAPSSKSTSGGTAALGCLVKDYFPEPVTVSWNSGALTSGVHTFPAVLQSSGLYSLSSVVTVPSSSLGTQTYICNVNHKPSNTKVDKRVEPKSCDKTHTCPPCPAPEFEGGPSVFLFPPKPKDTLMISRTPEVTCVVVAVSHEDPEVKFNWYVDGVEVHNAKTKPREEQYNSTYRVVSVLTVLHQDWLNGKEYKCKVSNKALPAPIEKTISKAKGQPREPQVYTLPPSREEMTKNQVSLTCLVKGFYPSDIAVEWESNGQPENNYKTTPPVLDSDGSFFLYSRLTVDKSRWQQGNVFSCSVMHEALHNHYTQKSLSLSPG
light 2: DVVMTQTPLTLSVTIGQPASISCKSSQSLSDSDGKTYLNWLLQRPGQSPKRLIYLVSKLDSGVPDRFTGSGSGTDFTLKISRVEAEDLGVYYCWQGAHFPRTFGGGTKLEIKRTVAAPSVFIFPPSDEQLKSGTASVVCLLNNFYPREAKVQWKVDNALQSGNSQESVTEQDSKDSTYSLSSTLTLSKADYEKHKVYACEVTHQGLSSPVTKSFNRGEC
notes: Bispecific IgG1 made by controlled Fab-arm exchange; also called bsIgG1-huCD3-FEALxCD30-T405-FEAR
B6: bsG1-huCD3-FEALxCD30-T408-FEAR (bispecific antibody, human IgG1, kappa, lambda)
heavy 1: not shown
light 1: not shown
heavy 2: B5 heavy 2 with I7P, N30T, N31S, R57Y, P75S
light 2: B5 light 2
B7: bsG1-huCD3-FEALxCD30-T215-FEAR (bispecific antibody, human IgG1, kappa, lambda)
heavy 1: not shown
light 1: not shown
heavy 2: not shown
light 2: DIVMTQSQKFMSTSVGDRVSVTCKASQNVFTNVAWYQQKLGQSPKPLIYSASYRYSGVPDRFTGSGSGTDFTLTISDVQSEDLAEYFCQQYNSYPVTFGAGTKLELKRTVAAPSVFIFPPSDEQLKSGTASVVCLLNNFYPREAKVQWKVDNALQSGNSQESVTEQDSKDSTYSLSSTLTLSKADYEKHKVYACEVTHQGLSSPVTKSFNRGEC
notes: Bispecific IgG1 made by controlled Fab-arm exchange; also called bsIgG1-huCD3-FEALxCD30-T215-FEAR
B8: IgG1-CD30-hAC10-FEAR (antibody, V domains shown)
VH: QVQLVQSGAEVKKPGASVKVSCKASGYTFTDYYITWVRQAPGQGLEWMGWIYPGSGNTKYNEKFKGRVTMTRDTSISTAYMELSRLRSDDTAVYYCANYGNYWFAYWGQGTLVTVSS
VL: DIVMTQSPDSLAVSLGERATINCKASQSVDFDGDSYMNWYQQKPGQPPKLLIYAASNLESGVPDRFSGSGSGTDFTLTISSLQAEDVAVYYCQQSNEDPWTFGQGTKVEIKR
notes: as for B2
B9: IgG1-CD30-HeFi-I-FEAR (antibody, V domains shown)
VH: EVKLVESGGGLVQPGGSLRLSCATSGFTFSDYYMNWVRQPPGKALEWLGFIRNKANGYTTEFSASVMGRFTISRDDSQSILYLQMNTLRAEDSATYYCARDPPYGNPHYYAMDYWGQGTSVTVSS
VL: DIVLTQSPASLAVSLGQRATISCRASKSVSASGYNYMHWYQQKAGQPPKLLIHLASNLESGVPARFSGSGSGTDFTLNIHPVEEEDASTYYCQHSGELPFTFGSGTKLEIKR
notes: as for B2

Changes are numbered by the printed parent chain.

For one test, the target named is T1, human CD30. In words: flow cytometry, SU-DHL-1 cells. Here is the method:
(§1) Binding of CD3×CD30 bispecific antibodies to two CD30-expressing human tumor cell lines SU-DHL-1 (ALCL; ATCC, cat. no. ACC 356) and HDLM-2 (HL; ATCC, cat. no. CRL-2965) was analyzed […] by flow cytometry.
(§2) Cells (3×10⁴ cells/well) were incubated in polystyrene 96-well round-bottom plates (Greiner bio-one, cat. no. 650180) with serial dilutions of antibodies (range 0.0046 to 10 μg/mL in 3-fold dilution steps) in 50 μL staining buffer at 4° C. for 30 min. After washing twice in staining buffer, cells were incubated with 50 μL secondary antibody at 4° C. for 30 min. […] Next, cells were washed twice in staining buffer, resuspended in 100 μL staining buffer supplemented with TO-PRO-3 iodide (Thermo Fisher Scientific; cat. no. T3605; 1:8000 dilution) and analyzed on a FACSCelesta flow cytometer (BD Biosciences, USA). Live cells were gated based on FSC/SSC and absence of TOPRO-3 staining. Binding curves were analyzed by non-linear regression of log-transformed data (sigmoidal dose-response with variable slope, four parameters) using GraphPad Prism V7.02 software (GraphPad Software, San Diego, CA, USA).
In general terms: In flow cytometry, cells or beads pass a laser one at a time.
Regarding B1, the EC50 (read off the curve) (as a rule, the midpoint of the concentration-response curve) was about 0.2 µg/mL.
Still for that read-out and setting: then B2, with about 0.1 µg/mL.
B3: the “EC50 (read off the curve)” value was about 0.3 µg/mL.
With B4, the “EC50 (read off the curve)” value is about 0.2 µg/mL.

The next test addresses T1, human CD30. In words: cell-based or functional assay.
As for B5, the “T-cell mediated cytotoxicity of Karpas-299 cells, IC50 average” value (“T-cell mediated cytotoxicity … IC50 average” for short) came to 0.078 µg/mL and the “T-cell mediated cytotoxicity of Karpas-299 cells, maximum lysis average” value came out at 41.7%.
With B6, the “T-cell mediated cytotoxicity … IC50 average” value turned out to be 0.226 µg/mL and the “T-cell mediated cytotoxicity of Karpas-299 cells, maximum lysis average” value was 41.3%.
For B7, the “T-cell mediated cytotoxicity … IC50 average” value stood at 0.077 µg/mL and the “T-cell mediated cytotoxicity of Karpas-299 cells, maximum lysis average” value was determined as 42.8%.
With B3, the “T-cell mediated cytotoxicity … IC50 average” value came to 0.052 µg/mL and the “T-cell mediated cytotoxicity of Karpas-299 cells, maximum lysis average” value was 43%.

In a further test the target is T1, human CD30. In words: flow cytometry, HDLM-2 cells. The protocol:
as §1, §2
In the case of B1, the “EC50 (read off the curve)” value is about 0.2 µg/mL.
In the case of B5, the “EC50 (read off the curve)” value is about 1 µg/mL.
Turning to B7, the “EC50 (read off the curve)” value was about 0.6 µg/mL.
Regarding B2, the “EC50 (read off the curve)” value is about 0.2 µg/mL.
On the same count and under the same terms, the same measure for B8: about 0.1 µg/mL; for B3: about 0.3 µg/mL.
On to B4, for which the “EC50 (read off the curve)” value is about 0.2 µg/mL.

The next test concerns the target T1, human CD30. In words: flow cytometry, Expi293F cells transfected with human CD30. Here is the method: Cells (3×10⁴ cells/well) were incubated in polystyrene 96-well round-bottom plates (Greiner bio-one, cat. no. 650180) with serial dilutions of antibodies (ranging from 0.005 to 10 μg/mL in 3-fold dilution steps) in 100 μL staining buffer at 4° C. for 30 min. Experiments were performed in technical duplicate. After washing twice in staining buffer, cells were incubated in 50 μL secondary antibody at 4° C. for 30 min. As a secondary antibody, R-PE-conjugated goat-anti-human IgG (Jackson ImmunoResearch, UK; cat. no. 109⁻¹¹⁶-098) diluted 1:400 in staining buffer was used. Cells were washed twice in staining buffer, resuspended in 30 μL staining buffer containing 0.4% EDTA and analyzed on an iQue Screener (Intellicyt Corporation, USA). Binding curves were analyzed using non-linear regression (sigmoidal dose-response with variable slope) using GraphPad Prism V9.0.0 software (GraphPad Software, San Diego, CA, USA).
Consider B5, for which the “EC50 (read off the curve)” value is about 0.7 µg/mL.
In the case of B9, the binding result was “binds”.
As to B3, the “EC50 (read off the curve)” value was about 0.1 µg/mL.

For the origin of these results see US20260234255A1 (Genmab, published 2026).
